{"source": "paper PMC2737085", "target": "RPA heterotrimer with the phosphomimetic Asp8-RPA2 subunit (UniProt P27694)", "assay": "co-IP"}
{"substance": "MRE11/RAD50/NBS1 (MRN) complex (from UniProt P49959 1-708; Q92878 1-1312; O60934 1-754)", "values": [{"measurement": "percent decrease in binding against RPA", "value": 88, "unit": "%"}]}
